In patent publication US20220275083A1 (EUTILEX, published 2022) one finds Kd, koff and kon data, which are given here for 6 molecules.

B1: bispecific epitope binding protein S06 (bispecific antibody)
chain: FLESPDRPWNAPTFSPALLLVAEGDNATFTCSFSNASESFHVVWHRESPSGQTDTLAAFPEDRSQPGQDHRFRVTRLPNGRDFHMSVVRAQRNDSGTYVCGVISLAPKIQIKESLRAELRVTERRAEVPTAHPSPSPRPAGQFQTLVVGGGGGSGGGGSGGGGSFLESPDRPWNAPTFSPALLLVAEGDNATFTCSFSNASESFHVVWHRESPSGQTDTLAAFPEDRSQPGQDHRFRVTRLPNGRDFHMSVVRAQRNDSGTYVCGVISLAPKIQIKESLRAELRVTERRAEVPTAHPSPSPRPAGQFQTLVVGASGGGGSGGGGSDKTHTCPPCPAPEAAGGPSVFLFPPKPKDTLMISRTPEVTCVVVDVSHEDPEVKFNWYVDGVEVHNAKTKPREEQYNSTYRVVSVLTVLHQDWLNGKEYKCAVSNKALPAPIEKTISKAKGQPREPQVYTLPPSREEMTKNQVSLTCLVKGFYPSDIAVEWESNGQPENNYKTTPPVLDSDGSFFLYSKLTVDKSRWQQGNVFSCSVMHEALHNHYTQKSLSLSPGGGGGSGGGGSQVQLVQSGAEVKKPGASVKLSCKASGYTFSSYWMHWVRQAPGQGLEWIGEINPGNGHTNYNEKFKSRVTMTRDTSTSTAYMELSSLRSEDTAVYYCARSFKTARAFAYWGQGTLVTVSSGSTSGSGKPGSGEGSTKGDIVMTQSPAFLSVTPGEKVTITCRASQTISDYLHWYQQKPDQAPKLLIKYASQSISGIPSRFSGSGSGTDFTFTISSLEAEDAATYYCQDGHSWPPTFGQGTKLEIK
notes: Anti-4-1BB 94kvt scFv x euPD-1 with hinge and engineered IgG1 Fc
B2: bispecific epitope binding protein S07 (bispecific antibody)
chain: FLESPDRPWNAPTFSPALLLVAEGDNATFTCSFSNASESFHVVWHRESPSGQTDTLAAFPEDRSQPGQDHRFRVTRLPNGRDFHMSVVRAQRNDSGTYVCGVISLAPKIQIKESLRAELRVTERRAEVPTAHPSPSPRPAGQFQTLVVGASGGGGSGGGGSDKTHTCPPCPAPEAAGGPSVFLFPPKPKDTLMISRTPEVTCVVVDVSHEDPEVKFNWYVDGVEVHNAKTKPREEQYNSTYRVVSVLTVLHQDWLNGKEYKCAVSNKALPAPIEKTISKAKGQPREPQVYTLPPSREEMTKNQVSLTCLVKGFYPSDIAVEWESNGQPENNYKTTPPVLDSDGSFFLYSKLTVDKSRWQQGNVFSCSVMHEALHNHYTQKSLSLSPGGGGGSGGGGSDIVMTQSPAFLSVTPGEKVTITCRASQTISDYLHWYQQKPDQAPKLLIKYASQSISGIPSRFSGSGSGTDFTFTISSLEAEDAATYYCQDGHSWPPTFGQGTKLEIKGSTSGSGKPGSGEGSTKGQVQLVQSGAEVKKPGASVKLSCKASGYTFSSYWMHWVRQAPGQGLEWIGEINPGNGHTNYNEKFKSRVTMTRDTSTSTAYMELSSLRSEDTAVYYCARSFKTARAFAYWGQGTLVTVSS
notes: as for B1
B3: bispecific epitope binding protein S08 (bispecific antibody)
chain: FLESPDRPWNAPTFSPALLLVAEGDNATFTCSFSNASESFHVVWHRESPSGQTDTLAAFPEDRSQPGQDHRFRVTRLPNGRDFHMSVVRAQRNDSGTYVCGVISLAPKIQIKESLRAELRVTERRAEVPTAHPSPSPRPAGQFQTLVVGGGGGSGGGGSGGGGSFLESPDRPWNAPTFSPALLLVAEGDNATFTCSFSNASESFHVVWHRESPSGQTDTLAAFPEDRSQPGQDHRFRVTRLPNGRDFHMSVVRAQRNDSGTYVCGVISLAPKIQIKESLRAELRVTERRAEVPTAHPSPSPRPAGQFQTLVVGASGGGGSGGGGSDKTHTCPPCPAPEAAGGPSVFLFPPKPKDTLMISRTPEVTCVVVDVSHEDPEVKFNWYVDGVEVHNAKTKPREEQYNSTYRVVSVLTVLHQDWLNGKEYKCAVSNKALPAPIEKTISKAKGQPREPQVYTLPPSREEMTKNQVSLTCLVKGFYPSDIAVEWESNGQPENNYKTTPPVLDSDGSFFLYSKLTVDKSRWQQGNVFSCSVMHEALHNHYTQKSLSLSPGGGGGSGGGGSDIVMTQSPAFLSVTPGEKVTITCRASQTISDYLHWYQQKPDQAPKLLIKYASQSISGIPSRFSGSGSGTDFTFTISSLEAEDAATYYCQDGHSWPPTFGQGTKLEIKGSTSGSGKPGSGEGSTKGQVQLVQSGAEVKKPGASVKLSCKASGYTFSSYWMHWVRQAPGQGLEWIGEINPGNGHTNYNEKFKSRVTMTRDTSTSTAYMELSSLRSEDTAVYYCARSFKTARAFAYWGQGTLVTVSS
notes: as for B1
B4: bispecific epitope binding protein S01 (bispecific antibody)
chain: QVQLVQSGAEVKKPGASVKLSCKASGYTFSSYWMHWVRQAPGQGLEWIGEINPGNGHTNYNEKFKSRVTMTRDTSTSTAYMELSSLRSEDTAVYYCARSFKTARAFAYWGQGTLVTVSSGSTSGSGKPGSGEGSTKGDIVMTQSPAFLSVTPGEKVTITCRASQTISDYLHWYQQKPDQAPKLLIKYASQSISGIPSRFSGSGSGTDFTFTISSLEAEDAATYYCQDGHSWPPTFGQGTKLEIKASGGGGSGGGGSDKTHTCPPCPAPEAAGGPSVFLFPPKPKDTLMISRTPEVTCVVVDVSHEDPEVKFNWYVDGVEVHNAKTKPREEQYNSTYRVVSVLTVLHQDWLNGKEYKCAVSNKALPAPIEKTISKAKGQPREPQVYTLPPSREEMTKNQVSLTCLVKGFYPSDIAVEWESNGQPENNYKTTPPVLDSDGSFFLYSKLTVDKSRWQQGNVFSCSVMHEALHNHYTQKSLSLSPGGGGGSGGGGSFLESPDRPWNAPTFSPALLLVAEGDNATFTCSFSNASESFHVVWHRESPSGQTDTLAAFPEDRSQPGQDHRFRVTRLPNGRDFHMSVVRAQRNDSGTYVCGVISLAPKIQIKESLRAELRVTERRAEVPTAHPSPSPRPAGQFQTLVVG
notes: Anti-4-1BB 94kvt scFv x euPD-1 with hinge and engineered IgG1 Fc (L234A, L235A, K322A, D356E, L358M)
B5: bispecific epitope binding protein S04 (bispecific antibody)
chain: DIVMTQSPAFLSVTPGEKVTITCRASQTISDYLHWYQQKPDQAPKLLIKYASQSISGIPSRFSGSGSGTDFTFTISSLEAEDAATYYCQDGHSWPPTFGQGTKLEIKGSTSGSGKPGSGEGSTKGQVQLVQSGAEVKKPGASVKLSCKASGYTFSSYWMHWVRQAPGQGLEWIGEINPGNGHTNYNEKFKSRVTMTRDTSTSTAYMELSSLRSEDTAVYYCARSFKTARAFAYWGQGTLVTVSSASGGGGSGGGGSDKTHTCPPCPAPEAAGGPSVFLFPPKPKDTLMISRTPEVTCVVVDVSHEDPEVKFNWYVDGVEVHNAKTKPREEQYNSTYRVVSVLTVLHQDWLNGKEYKCAVSNKALPAPIEKTISKAKGQPREPQVYTLPPSREEMTKNQVSLTCLVKGFYPSDIAVEWESNGQPENNYKTTPPVLDSDGSFFLYSKLTVDKSRWQQGNVFSCSVMHEALHNHYTQKSLSLSPGGGGGSGGGGSFLESPDRPWNAPTFSPALLLVAEGDNATFTCSFSNASESFHVVWHRESPSGQTDTLAAFPEDRSQPGQDHRFRVTRLPNGRDFHMSVVRAQRNDSGTYVCGVISLAPKIQIKESLRAELRVTERRAEVPTAHPSPSPRPAGQFQTLVVGGGGGSGGGGSGGGGSFLESPDRPWNAPTFSPALLLVAEGDNATFTCSFSNASESFHVVWHRESPSGQTDTLAAFPEDRSQPGQDHRFRVTRLPNGRDFHMSVVRAQRNDSGTYVCGVISLAPKIQIKESLRAELRVTERRAEVPTAHPSPSPRPAGQFQTLVVG
notes: as for B1
B6: bispecific epitope binding protein S05 (bispecific antibody)
chain: FLESPDRPWNAPTFSPALLLVAEGDNATFTCSFSNASESFHVVWHRESPSGQTDTLAAFPEDRSQPGQDHRFRVTRLPNGRDFHMSVVRAQRNDSGTYVCGVISLAPKIQIKESLRAELRVTERRAEVPTAHPSPSPRPAGQFQTLVVGASGGGGSGGGGSDKTHTCPPCPAPEAAGGPSVFLFPPKPKDTLMISRTPEVTCVVVDVSHEDPEVKFNWYVDGVEVHNAKTKPREEQYNSTYRVVSVLTVLHQDWLNGKEYKCAVSNKALPAPIEKTISKAKGQPREPQVYTLPPSREEMTKNQVSLTCLVKGFYPSDIAVEWESNGQPENNYKTTPPVLDSDGSFFLYSKLTVDKSRWQQGNVFSCSVMHEALHNHYTQKSLSLSPGGGGGSGGGGSQVQLVQSGAEVKKPGASVKLSCKASGYTFSSYWMHWVRQAPGQGLEWIGEINPGNGHTNYNEKFKSRVTMTRDTSTSTAYMELSSLRSEDTAVYYCARSFKTARAFAYWGQGTLVTVSSGSTSGSGKPGSGEGSTKGDIVMTQSPAFLSVTPGEKVTITCRASQTISDYLHWYQQKPDQAPKLLIKYASQSISGIPSRFSGSGSGTDFTFTISSLEAEDAATYYCQDGHSWPPTFGQGTKLEIK
notes: as for B1

The target in the first test is T1, 4-1BB antigen (abclon) (UniProt Q07011 24-186).
T1 construct: Bought antigen
T1 sequence (Q07011 24-186): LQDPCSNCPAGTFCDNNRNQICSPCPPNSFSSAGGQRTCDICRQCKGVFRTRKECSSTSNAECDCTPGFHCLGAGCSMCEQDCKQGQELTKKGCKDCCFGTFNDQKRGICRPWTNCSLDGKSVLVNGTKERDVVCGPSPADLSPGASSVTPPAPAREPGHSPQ
Briefly: SPR, Biacore T200; variant captured on CM5, 4-1BB antigen injected. The protocol: (§1) Affinity to 4-1BB was determined using the bispecific epitope binding protein variants diluted to 5 μg/ml and then fixed to CM5 chip (Cytiva, BR-1005-30) with human capture (Cytiva, Cat. No. BR-1008-39). The 4-1BB antigen (abclon) was injected at concentrations of 100, 50, 25, 12.5, 6.25, and 3.125 nM, the association time was set to 150 seconds, and the dissociation time was set to 240 seconds. Biacore T200 (cytiva) was used as the analysis equipment.
In turn, B1 had a Kd of 3.72 nM, a koff of 0.000914 s⁻¹ and a kon of 245000 M⁻¹ s⁻¹.

In turn, B2 came in with a Kd of 105 nM, a koff of 0.000676 s⁻¹ and a kon of 6430 M⁻¹ s⁻¹.

On to B3, for which the Kd was 6.83 nM, the koff came out at 0.000764 s⁻¹ and the kon amounted to 112000 M⁻¹ s⁻¹.

B4 registered a Kd of 3.34 nM, a koff of 0.000537 s⁻¹ and a kon of 161000 M⁻¹ s⁻¹.

Consider B5, for which binding was put at a Kd of 2.87 nM, the koff worked out at 0.000662 s⁻¹ and the kon turned out to be 231000 M⁻¹ s⁻¹.

For the molecule B6, the Kd was found to be 3.66 nM, the koff was 0.000466 s⁻¹ and the kon was 127000 M⁻¹ s⁻¹.

Another test deals with T2, PD-L1 antigen (SinoBiologics, Cat. No. 10084-H08H) (human, UniProt Q9NZQ7 19-238).
T2 construct: Bought antigen; also called human PD-L1
T2 sequence (Q9NZQ7 19-238 limits assumed): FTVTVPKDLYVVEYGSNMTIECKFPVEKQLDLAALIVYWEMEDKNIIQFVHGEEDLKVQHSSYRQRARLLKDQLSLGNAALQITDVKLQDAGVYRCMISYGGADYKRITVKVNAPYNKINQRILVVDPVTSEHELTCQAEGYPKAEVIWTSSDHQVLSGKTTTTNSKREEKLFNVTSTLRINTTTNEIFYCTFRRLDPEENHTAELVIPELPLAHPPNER
Briefly: SPR, Biacore T200; variant captured on CM5, PD-L1 antigen injected. The protocol:
as §1
Affinity to PD-L1 was determined using the bispecific epitope binding protein variants diluted to 10 μg/ml and then fixed to CM5 chip with human capture.
Background: Surface plasmon resonance follows binding to a sensor surface in real time, without labels.
B1 came in with a Kd of 2.22 nM, a koff of 0.00186 s⁻¹ and a kon of 837000 M⁻¹ s⁻¹.

B2 displayed a Kd of 1.58 nM, a koff of 0.00158 s⁻¹ and a kon of 1e+06 M⁻¹ s⁻¹.

Molecule B3 had a Kd of 2.22 nM, a koff of 0.00186 s⁻¹ and a kon of 837000 M⁻¹ s⁻¹.

As to B4, the Kd came to 5.73 nM, the koff turned out to be 0.00132 s⁻¹ and the on-rate (kon) was 230000 M⁻¹ s⁻¹.

As to B5, the Kd is 2.34 nM, the koff stood at 0.0014 s⁻¹ and the kon was 596000 M⁻¹ s⁻¹.

B6 showed a Kd of 1.16 nM, a koff of 0.00169 s⁻¹ and a kon of 1.46e+06 M⁻¹ s⁻¹.

What is called Kd is the concentration at which binding is half-saturated. Higher therefore signals weaker binding. Usually koff stands for a measure of how fast the partners let go of each other. Low readings indicate slow dissociation, high ones fast dissociation. In general, kon refers to a measure of how fast the partners come together. Higher therefore signals faster complex formation.
